# Measured values reported in patent US12029792B2, “Stereocomplexes for the delivery of anti-cancer agents” (priority 2018, dated 2024).
# Key:
# [1] = system: MiA PaCa-2 pancreatic tumor; experiment: Subcutaneous MiA PaCa-2 pancreatic tumor model; format: in vivo, mice; conditions: four injections for D-DM1, two injections for the stereocomplex
# Experimental: In vivo antitumor efficacy of the complex was assessed in a subcutaneous MiA PaCa-2 pancreatic tumor model. MiA PaCa-2 cell suspensions were injected subcutaneously on the backs of mice to establish the tumor model. When tumor volume reached approximately 140 mm^3, groups of tumor bearing mice (n=5) were injected through the tail vein on day 1 and day 14 of an approximately 40-day trial.
# (§1) Antitumor efficacy and toxicity for the stereocomplex and DM1-containing prodrug were assessed in a subcutaneous MiaPaCa-2 pancreatic tumor model. MiA PaCa-2 cell suspensions were injected subcutaneously on the backs of mice to establish the tumor model. When tumor volume reached approximately 140 mm^3, groups of tumor-bearing mice (n=5) were injected with treatment through the tail vein.
# [2] = Tolerance of formulations in mice without tumors; format: in vivo; conditions: healthy mice, tail vein days 1, 8, 15, 22
# Experimental: Healthy mice (n=5 for each treatment group) were injected on days 1, 8, 15, and 22 of a 28-day trial in the tail vein with either the DM1-containing prodrug at 4 mg/kg, the DM1-containing prodrug plus mPEG-PLLA at 4 mg/kg, or the stereocomplex with 4 mg/kg DM1 and 27 mg/kg DTX per injection and body weight was monitored to determine tolerance of the treatments. […] Healthy mice (n=5 for each treatment group) were injected with complex at 3.6 mg/kg DM1 once/week for total three injections, at 5 mg/kg DM1 once/two weeks for total two injections and at 7 mg/kg DM1 only once, respectively.
# [3] = In vitro release of DM1 by dialysis with or without GSH; format: physicochemical
# Experimental: The release of poly-DM1 was performed by dialysis in phosphate buffered saline (pH 7.4, containing 0.2% w/v polysorbate 80) with or without 10 mM glutathione (GSH). Briefly, 1 mL of the poly-DM1 formulation with the concentration of DM1 adjusted to 0.5 mg/mL by PBS was placed in a dialysis bag (MWCO=3.5k Da), which was sealed. After being immediately immersed in 10 mL release medium, the sample was incubated at 37° C. At scheduled time intervals (4, 8, 24, 48 h), 1 mL of the external release medium was taken out and replenished with an equal volume of fresh medium. All released samples were freeze-dried and the amount of released DM1 was determined using HPLC measurements as described previously.
# Release of DM1 from the stereocomplex over time, with and without glutathione (GSH) was measured at pH 7.4; results are presented in FIG. 16B. DM1 is released from the isolated prodrug most quickly in the presence of GSH (squares) and more slowly from the stereocomplex (circles). In the absence of glutathione, DM1 is essentially not released from either the isolated prodrug or the complex (triangles and inverted triangles at 0% cumulative release). Thus, conjugation of DM1 with a redox-sensitive disulfide linker prohibits premature release of DM1 without GSH.
# CNE nasopharyngeal tumor = experiment: Subcutaneous CNE nasopharyngeal tumor model; format: in vivo, mice; conditions: four injections once per week; 4 mg/kg DM1 (complex also 26 mg/kg DTX)
# Experimental: as §1, with “CNE nasopharyngeal” for “MiaPaCa-2 pancreatic”, “model when the treatment is delivered via intravenous injection. Cell” for “model. MiA PaCa-2 cell”, “100” for “140”, “tumor bearing” for “tumor-bearing”, “the complex” for “treatment”
substance,measurement,setting,value
mPEG-PDLA-SS-DM1 [D-DM1],antitumor effect (tumor volume),[1],almost the same antitumor effect
same,toxicity: mouse death and body weight,[1],induced mouse death and obvious body weight decrease
same,tail swelling and ulceration,[2]; 4 mg/kg DM1,two mice showed tail swelling and ulceration on days 8-14
same,Body weight,"[2]; 4 mg/kg DM1 (stereocomplex also 27 mg/kg DTX), 28-day trial",increased slightly
same,cumulative release of DM1,"[3]; pH 7.4, in the absence of glutathione",0%
same,Release of DM1 over time,"[3]; pH 7.4, in the presence of GSH (10 mM)",most quickly
same,tumor volume,CNE nasopharyngeal tumor,tumor volume increased significantly
